Results as given in US20230034768A1 (BIOSION, published 2023).
Like-named read-outs stand apart in the source and are kept apart here.

Legend:
[1] = target: T1, biotin-labeled human RANKL-Fc protein (prepared in house, SEQ ID NO.: 40) (human, biotin-labeled (sites not given)); test: competitive ELISA: antibody blocks biotin-labeled human RANKL-Fc binding to coated benchmark denosumab
T1 construct: also called RANKL-Fc-biotin

[2] = target: T1, biotin-labeled human RANKL-Fc protein …; test: competitive ELISA: antibody blocks biotin-labeled human RANKL-Fc binding to coated human RANK-Fc
[3] = target: T2, human RANKL-his protein (prepared in-house with SEQ ID NO: 43) (human, UniProt O14788 136-317); test: Octet BLI, antibody captured, human RANKL-his in solution
T2 construct: also called recombinant human RANKL-his
T2 chain: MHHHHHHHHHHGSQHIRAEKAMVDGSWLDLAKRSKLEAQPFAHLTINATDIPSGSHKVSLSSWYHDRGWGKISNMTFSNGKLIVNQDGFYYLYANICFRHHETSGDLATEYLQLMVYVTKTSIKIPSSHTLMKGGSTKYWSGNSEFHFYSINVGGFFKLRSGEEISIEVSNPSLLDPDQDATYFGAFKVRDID
Protocol: (§1) Briefly, AHC/AMC biosensors (anti-human/anti-mouse IgG Fc capture, ForteBio) were presoaked with 10 mM glycine (pH 1.5) for 3 seconds, and then dipped in a well with running buffer (0.5% w/v BSA in PBST) for 3 seconds, the soaking and dipping steps were repeated for three times. […] A new baseline was run for 180 seconds in another well with HBS-EP⁺. […] Finally, sensors were presoaked with 10 mM glycine (pH 1.5) for 3 seconds, and then dipped in a well with running buffer for 3 seconds, the soaking and dipping steps repeated for three times. The association and dissociation curves were fit to a 1:1 Langmuir binding model using Octet evaluation software.
(§2) Cell supernatants were harvested after six days in shaking flasks, spun down to pellet cells, and then chimeric antibodies were purified from cell supernatants as described above. The purified antibodies were tested in the capture ELISA, competitive ELISA assay and Octet affinity test following the protocols in the foregoing Examples.

[4] = target: T1, biotin-labeled human RANKL-Fc protein …; test: capture ELISA: captured antibody, biotin-labeled human RANKL-Fc, OD(450-630)
Protocol: (§3) Plates were washed once with wash buffer (PBS+0.05% v/v Tween-20, PBST) and then blocked with 200 μl/well blocking buffer (5% w/v non-fatty milk in PBST) for 2 hours at 37° C. […] After a final wash, plates were incubated with 100 μl/well ELISA substrate TMB (Innoreagents, Cat #TMB-S-002) at room temperature. The reaction was stopped in 3-10 minutes with 50 μl/well 1M H₂SO₄, and the absorbance of each well was read on a microplate reader using dual wavelengths mode with 450 nm for TMB and 630 nm as the reference wavelength. The OD (450-630) values were plotted against antibody concentration. Data were analyzed using Graphpad Prism software and EC₅₀ values were reported.
as §2

[5] = target: T3, cynomolgus monkey RANKL-his protein (prepared in-house with SEQ ID NO.:42) (cynomolgus monkey, UniProt O14788 136-317 (human entry), limits assumed); test: Biacore T200 SPR, antibody captured by anti-human IgG, cynomolgus RANKL-his in flow, 1:1 fit
T3 construct: also called Cynomolgus RANKL
T3 chain: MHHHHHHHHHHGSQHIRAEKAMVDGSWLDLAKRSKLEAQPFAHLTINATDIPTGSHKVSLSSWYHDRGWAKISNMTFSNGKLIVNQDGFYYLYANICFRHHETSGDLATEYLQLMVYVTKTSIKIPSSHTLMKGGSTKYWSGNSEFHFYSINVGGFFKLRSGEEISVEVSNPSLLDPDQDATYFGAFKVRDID
Protocol: (§4) Briefly, goat anti-human IgG (GE healthcare, Cat #BR100839, Human Antibody Capture Kit) was covalently linked to a CM5 chip (carboxy methyl dextran coated chip from GE healthcare #BR10030) via primary amines, using a standard amine coupling kit provided by Biacore. Un-reacted moieties on the biosensor surface were blocked with ethanolamine. […] The antigen-antibody association kinetics was followed for 2 minutes and the dissociation kinetics was followed for 10 minutes. The association and dissociation curves were fit to a 1:1 Langmuir binding model using BIAcore evaluation software.

[6] = target: T4, Recombinant human RANKL-his protein (R&D, Cat #6449-TEC-010) (human, UniProt O14788 140-317, limits assumed); test: cell-based or functional assay
T4 sequence (looked up): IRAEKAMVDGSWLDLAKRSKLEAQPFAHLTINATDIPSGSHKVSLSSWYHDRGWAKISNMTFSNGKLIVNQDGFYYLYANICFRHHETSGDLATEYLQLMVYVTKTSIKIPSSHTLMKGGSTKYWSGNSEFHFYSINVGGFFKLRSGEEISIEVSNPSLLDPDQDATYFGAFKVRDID

[7] = target: T2, human RANKL-his protein (prepared …); test: Biacore T200 SPR, antibody captured by anti-human IgG, human RANKL-his in flow, 1:1 fit
Protocol: as §4

[8] = target: T2, human RANKL-his protein (prepared …); test: Octet BLI, antibody from cell supernatant captured, human RANKL-his in solution
Protocol: as §1
The chimeric antibody when tested was in HBS-EP⁺ at 5 μg/ml concentration.

[9] = target: T4, Recombinant human RANKL-his protein …; test: cell-based or functional assay; remark: listed apart in the source
[10] = target: T1, biotin-labeled human RANKL-Fc protein …; test: competitive ELISA: antibody blocks biotin-labeled human RANKL-Fc binding to coated benchmark denosumab; remark: listed apart in the source
[11] = target: T1, biotin-labeled human RANKL-Fc protein …; test: competitive ELISA: antibody blocks biotin-labeled human RANKL-Fc binding to coated human RANK-Fc; remark: listed apart in the source
Protocol: Briefly, human RANK-Fc proteins (prepared in house, SEQ ID NO.: 41) were coated on 96-well micro plates at 2.0 μg/mL in PBS, 100 μl/well, and incubated overnight at 4° C. The next day, plates were washed with wash buffer (PBS+0.05% w/v Tween-20, PBST), and blocked with 5% w/v non-fatty milk in PBST, 200 μl/well, for 2 hours at 37° C.
Plates were washed 4 times using wash buffer, and added and incubated with 100 μl/well of streptavidin conjugated HRP (1:10000 dilution in PBST buffer, Jackson ImmunoResearch Laboratories, Inc., Cat #016-030-084) for 40 minutes at 37° C. Plates were washed again using wash buffer. Finally, TMB was added and the reaction was stopped using 1M H₂SO₄, and the absorbance of each well was read on a microplate reader using dual wavelengths mode with 450 nm for TMB and 630 nm as the reference wavelength. The OD (450-630) values were plotted against antibody concentration. Data were analyzed using Graphpad Prism software and IC₅₀ values were reported.

[12] = target: T1, biotin-labeled human RANKL-Fc protein …; test: capture ELISA: captured antibody, biotin-labeled human RANKL-Fc, OD(450-630); remark: listed apart in the source
Protocol: as §3
For the capture ELISA, 96-well micro plates were coated with 2 μg/ml goat anti-human IgG (AffiniPure Goat Anti-Human IgG, F(ab′)₂ fragment specific, Jackson Immunoresearch, Cat #109-005-097) instead of AffiniPure Goat Anti-Mouse IgG, Fcγ fragment specific, 100 μl/well.

B1: Chimeric B1A8 (antibody, human IgG2, kappa, V domains shown)
VH: EVQLVESGGDLVKPGGSLKLSCAASGFTFSRYGMSWVRQTPDKRLEWVASISSGGTYTSYPDSVQGRFTITRDSAKNTLYLQMSSLKSEDTAMYYCARRNFITSATDCYFDVWGAGTTVTVSS
VL: DTVLTQSPATLSVTPGASVSLSCRASQSISNNLHWYQQKSHESPRLLIIYASQSISGIPSRFSGSGSGTDFTLSINSVETEDFGVYFCQQSNSWPFTFGGGTKLEIKR
notes: Mouse variable regions on human IgG2 / kappa; also called chimeric antibody B1A8
An IC50 [1] of 4.4 nM, an IC50 [2] of 0.905 nM and a Kd [3] of 1.62 nM were found for B1 in this work. It also gave an EC50 [4] of 2 nM.

B2: Chimeric B3D8 (antibody, human IgG2, kappa, V domains shown)
VH: EVQLVESGGDLVKSGGSLKLSCAASGFTFSRYGMSWVRQTPDKRLEWVASISSGGTYTSYPDSVKGRFTITRDSAKNTLYLQMSSLKSEDTAMYYCARRNFITSATDCYFDVWGAGTTVTVSS
VL: DTVLTQSPATLSVTPGASVSLSCRASQSISNNLHWYQQKSHESPRLLIIYASQSISGIPSRFSGSGSGTDFTLSINSVETEDFGVYFCQQSNSWPFTFGGGTKLEIKR
notes: Mouse variable regions on human IgG2 / kappa; also called chimeric antibody B3D8
An IC50 [1] of 16.8 nM, an IC50 [2] of 3.17 nM and a Kd [3] of 2.65 nM were found for B2 in this work. For the same binder, the EC50 [4] was 3.17 nM.

B3: Chimeric D1E3 (antibody, human IgG2, kappa, V domains shown)
VH: EVQLVESGGGLVKPGGSLKLSCAASGFTFSRYAMSWVRQTPEKRLEWVAGISSGGTYTYYPDTVKGRFTISRDSAKNILYLQMGSLRSEDSAMYHCARRDYGDVYEWYFDVWGTGTTVTVSS
VL: DIVMTQSHKFMSASVGDRVSITCKASQGVRIAVAWYQQKPGQSPKLLIYSASYRYTGVPDRFTGSGSGTDFTFTISSVQAEDLAVYYCQQHHSSPWTFGGGTKLEIKR
notes: Mouse variable regions on human IgG2 / kappa; also called chimeric antibody D1E3
An IC50 [1] of 0.258 nM, an IC50 [2] of 0.0505 nM and a Kd [3] of 0.612 nM were found for B3 in this work. The EC50 [4] was 0.183 nM.

B4: humanized antibody huD1A1-V2 (antibody, human IgG4 S228P, kappa, V domains shown)
VH: EVQLVESGGGLVKPGGSLRLSCAASGFTFRNYAMSWVRQAPGKGLEWVSGISSGGTYTYYPDTVKGRFTISRDNAKNSLYLQMNSLRAEDTAVYYCARRDYGDVYEWYFDVWGKGTTVTVSS
VL: DIQMTQSPSSLSASVGDRVTITCKASQDVRTSIAWYQQKPGKAPKLLIYSASYRYTGVPSRFSGSGSGTDFTFTISSLQPEDIATYYCQQHYSSPWTFGGGTKVEIKR
notes: Human IgG4 / kappa
For B4, the Kd [5] was 0.42 nM, the “IC50, RANKL-induced osteoclast differentiation of RAW264.7 cells (pNPP, OD405)” value [6] was ~1.45 nM and the Kd [7] was 0.134 nM. The Kd [8] was < 0.001 nM, the koff [8] was < 1e-07 s⁻¹ and the kon [8] was 112000 M⁻¹ s⁻¹. The “IC50, RANKL-induced osteoclast differentiation of RAW264.7 cells (pNPP, OD405)” value [9] was ~1.42 nM, the IC50 [10] was 0.444 nM and the IC50 [11] was 0.154 nM. It also gave an EC50 [12] of 0.2 nM.

B5: humanized antibody huD1A1-V3 (antibody, human IgG4 S228P, kappa, V domains shown)
VH: EVQLVESGGGLVKPGGSLRLSCAASGFTFRNYAMSWVRQAPGKGLEWVAGISSGGTYTYYPDTVKGRFTISRDNAKNSLYLQMNSLRAEDTAVYYCARRDYGDVYEWYFDVWGKGTTVTVSS
VL: DIQMTQSPSSLSASVGDRVTITCKASQDVRTSIAWYQQKPGKAPKLLIYSASYRYTGVPSRFSGSGSGTDFTFTISSLQPEDIATYYCQQHYSSPWTFGGGTKVEIKR
notes: Human IgG4 / kappa
For B5, the Kd [8] was < 0.001 nM, the koff [8] was < 1e-07 s⁻¹ and the kon [8] was 106000 M⁻¹ s⁻¹.

B6: humanized antibody huD1A1-V4 (antibody, human IgG4 S228P, kappa, V domains shown)
VH: EVQLVESGGGLVKPGGSLRLSCAASGFTFRNYAMSWVRQAPGKGLEWVAGISSGGTYTYYPDTVKGRFTISRDNARNSLYLQMNSLRAEDTAVYYCARRDYGDVYEWYFDVWGTGTTVTVSS
VL: DIQMTQSPSSLSASVGDRVTITCKASQDVRTSIAWYQQKPGKSPKLLIYSASYRYTGVPSRFSGSGSGTDFTFTISSLQPEDLATYYCQQHYSSPWTFGGGTKVEIKR
notes: Human IgG4 / kappa
For B6, the Kd [8] was < 0.001 nM, the koff [8] was < 1e-07 s⁻¹ and the kon [8] was 101000 M⁻¹ s⁻¹.

B7: humanized antibody huD1A1-V1 (antibody, human IgG4 S228P, kappa, V domains shown)
VH: EVQLVESGGGLVKPGGSLRLSCAASGFTFRNYAMSWVRQAPGKGLEWVAGISSGGTYTYYPDTVKGRFTISRDNARNSLYLQMNSLRAEDTAVYYCARRDYGDVYEWYFDVWGTGTTVTVSS
VL: DIQMTQSPSSLSASVGDRVTITCKASQDVRTSIAWYQQKPGKAPKLLIYSASYRYTGVPSRFSGSGSGTDFTFTISSLQPEDIATYYCQQHYSSPWTFGGGTKVEIKR
notes: Human IgG4 / kappa
For B7, the Kd [8] was < 0.001 nM, the koff [8] was < 1e-07 s⁻¹ and the kon [8] was 124000 M⁻¹ s⁻¹.

B8: humanized antibody huD1A1-V6 (antibody, human IgG4 S228P, kappa, V domains shown)
VH: EVQLVESGGGLVKPGGSLRLSCAASGFTFRNYAMSWVRQAPGKGLEWVAGISSGGTYTYYPDTVKGRFTISRDNAKNSLYLQMNSLRAEDTAVYYCARRDYGDVYEWYFDVWGKGTTVTVSS
VL: DIQMTQSPSSLSASVGDRVTITCKASQDVRTSIAWYQQKPGKSPKLLIYSASYRYTGVPSRFSGSGSGTDFTFTISSLQPEDLATYYCQQHYSSPWTFGGGTKVEIKR
notes: Human IgG4 / kappa
B8 was tested, and the Kd [8] was < 0.001 nM, the koff [8] was < 1e-07 s⁻¹ and the kon [8] was 115000 M⁻¹ s⁻¹.
